Laboratory results as given in the supplement of paper PMC9170038.

Tested on: MS2 coat protein
Assay: apparent KD of MS2 coat protein; designed switch direction (-1 OFF switch, 1 ON switch): 1; higher = weaker reporter binding
In short: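 The apparent KD reported per design is the median over clusters of curve fits to normalised cluster fluorescence. The RNA switches were transcribed on Illumina chips by stalled E. coli RNA polymerase. SNAP-549-labelled MS2 coat protein was titrated from 0.7 or 1.5 nM, doubling up to 3 µM, in Tris-HCl pH 7.5 buffer containing KCl, MgCl2, BSA, DTT, tRNA and Tween-20, with no input, 200 uM small-molecule ligand, or an oligonucleotide input.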

[1] = Eterna round: R95, input ligand: FMN 200 uM
[2] = Eterna round: R95, input ligand: microRNA oligo, concentration not stated
[3] = Eterna round: R95, input ligand: none
[4] = input ligand: microRNA oligo, concentration not stated

Sequence | apparent KD of MS2 coat protein [1] [nM] | apparent KD of MS2 coat protein [2] [nM] | apparent KD of MS2 coat protein [3] [nM] | apparent KD of MS2 coat protein (input ligand: FMN 200 uM) [nM] | apparent KD of MS2 coat protein [4] [nM] | apparent KD of MS2 coat protein (input ligand: none) [nM]
UAGUACAAGCUUUUUGCCCGUCUUAUUUAACAUGAGGAUCACCCAUGUAAGGUGAAAGUUAGAGAGUGGAGGUUGAA [JR_SHM208A_Sub049] (puzzle: Sensor for hsa-mir-208a) | 205 | 227 | 249 | – | – | –
GUAGAUAUAACGCAGGAUAUUCAAUGAGAGACAUGAGGAUCACCCAUGUGAGAGUGAGAUGAUAGGAAGAAGGGUGAGAGAGAUG [Altered State 2-8 - Jieux - Same State 2] (puzzle: Same State 2) | 107 | 124 | 122 | – | – | –
GGGAGAGGUACAGGAUAUGGUGAGGAUCACCCACUAGAAGGGUGCACAUGUGAAUCGGACAUGAGGAUCACCCAUGUUUGGCGU (Eterna round: R96, puzzle: Same State NG 1) | – | – | – | 86.7 | 74.8 | 133
GGUAGGUUACUACCAAACUACAUGAGGAUCACCCAUGUGUGGAAGGAUAUGGUACCUAUUUGGUACCAGAAGGUCCAAUUAAUU [Fiskers NG3ss - 5] (Eterna round: R96, puzzle: Same State NG 3) | – | – | – | 125 | 108 | 122
GGCUAUCGCGUACGAUAGCUUAAGCGUGUACAUGAGGAUCACCCAUGUCAUGUACAAGCUUUUUGCUCGUCUUAUUG [JL-shm-2.34 JL mod] (puzzle: Sensor for hsa-mir-208a) | 195 | 19.4 | 493 | – | – | –
GUGCGGCUGCCACAGGAUAUACGUGGAUCGACAUGAGGAUCACCCAUGUAUAUCCUAAUAAUUGCGUAGAAGGGUGGUCAGCCGG [Anzaenenes] (puzzle: Same State 2) | 143 | 608 | 825 | – | – | –
GCUGCAAGGGCAGGAUAUGGGUCCAAAGCGCAAGUGCGCUUUGGUACAUGAGGAUCACCCAUGUCCCAGAAGGGCCCAAACAGC [Bientierqu] (Eterna round: R96, puzzle: Same State NG 2) | – | – | – | 15.5 | 87.2 | 121
CCGAAAGGAGUAGGAUAUGUAGGAUAUUCCUACAUGAGGAUCACCCAUGUUCGCAUGGAAGAAGGACAGAAGGACACGGAAACG [pwkr ssNG2 2FMN + 1F5.14] (Eterna round: R96, puzzle: Same State NG 2) | – | – | – | 212 | 19 | 66.2
GCCAACUAAUGAGGAUAUGGCACCUUAUUGGUGCCAGAAGGCAUGUCAAUUGACAUGAGGAUCACCCAUGUAUUAUAGUUGGCA [Fiskers NG1ss - 33] (Eterna round: R96, puzzle: Same State NG 1) | – | – | – | 90.4 | 178 | 405
GCCGCGUUUCACGCCUACAUGAGGAUCACCCAUGUAUGUAGGCAGGAUAUCGUUUGCUUUGCAAACGAGAAGGGCUGUAGUGGC [salish99_SSNG3_R04_007] (Eterna round: R96, puzzle: Same State NG 3) | – | – | – | 41.7 | 92.3 | 116
ACAUGAGAAUGAGGAUAUGUUGUACCUACAUGUGACAUGAGGAUCACCCAUGUGGUAAGUAUGAUACAGAAGGCAUAGAUAUGU [Equivalance 62 - Jieux - Same State NG 2] (Eterna round: R96, puzzle: Same State NG 2) | – | – | – | 18.9 | 18 | 32.2
AGCUAUUAAUCAGGAUAUAGUGACAUGAGGAUCACCCAUGUAUUGAUGAUUAAAUGUGGUCACCACUAGAAGGGAUUACUAACA [SameState NG2 #48] (Eterna round: R96, puzzle: Same State NG 2) | – | – | – | 23.2 | 23.8 | 26.9
UGUCCAGCCUGAGCUGGACAAAAGCAUGUACAUGAGGAUCACCCAUGUUCAUGUACAAGCUUUUUGCUCGUCUUAGG [salish99_208a_r3_066] (puzzle: Sensor for hsa-mir-208a) | 695 | 19.2 | 506 | – | – | –
GGUAAGAAUUAAGGAUAUCGAGUACAUAUGUUUAACAUGAGGAUCACCCAUGUGGGUUGCGGUAUCGAGAAGGUAAAAUAAAAG [Mat - same State NG 2 - JL mod - D65] (Eterna round: R96, puzzle: Same State NG 2) | – | – | – | 53 | 29.2 | 36.2
AAAAGAACCACAGGAUAUACACUCCUAGCGGCGGUAGAAGGGUGGAACAUGAGGAUCACCCAUGUACGUCUGGAAUCAGACUAA [Radianis] (Eterna round: R96, puzzle: Same State NG 1) | – | – | – | 267 | 233 | 857
AUAUAACAUGAGGAUCACCCAUGUCUCUAAAGUUGAGGAUAUGGGCAGGUUAUAUCCGAACCAGAAGGCGAAUUAU [SS1 Teenbexe 7] (puzzle: Same State 1) | 74.5 | 46.3 | 102 | – | – | –
GGAGCCGGCCUAGGAUAUUUCAUAAGAAAACAUGAGGAUCACCCAUGUAGGCCAGAAGGCCUUGGGAAGAAGGAGGUCGGCUCC [Loop Effect - G26] (Eterna round: R96, puzzle: Same State NG 2) | – | – | – | 11.2 | 19.7 | 35.1
UAAUUAAGUCAAGGAUAUCACGUCGAAUAGACGUGAGAAGGUGACCAAUACAUGAGGAUCACCCAUGUAAUACAUGAAUAAUUA [SSNG1/12-B1] (Eterna round: R96, puzzle: Same State NG 1) | – | – | – | 27.7 | 35.8 | 45.9
GUAGCAUACCGAGGAUAUUCAUAUUAACAUGAGGAUCACCCAUGUAUUUAGGCCAAAAGGCCUUGGGAGAAGGCGGAAUGCUAC [Xeonanis - 20 Mod7] (Eterna round: R96, puzzle: Same State NG 2) | – | – | – | 17.5 | 22.3 | 29.4
CCAACGUACAAUUUAGAUCUACAUGAGGAUCACCCAUGUACGGAGGAUAUCAGCUCGUGUAGAGCUGAGAAGGCCGAAUUAAUU [SSNG3/2-A4] (Eterna round: R96, puzzle: Same State NG 3) | – | – | – | 88 | 298 | 465
GAGGAGGAUACAGGAUAUAUACAUGAGGAUCACACAUACAUGACAUGAGGAUCACCCAUGUUUGUAUAGAAGGGUAAGAGGAGG [Seems to be working] (Eterna round: R96, puzzle: Same State NG 2) | – | – | – | 51.2 | 24.2 | 66.1
UCUUGGUUUUUGCUCGUUUUUUGUGUUGAACAUGAGGAUCACCCAUGUAUUGUACGGUCCAAUUUAAUAAUGGUCCA [JMF 37] (puzzle: Sensor for hsa-mir-208a) | 28.9 | 15.7 | 26.7 | – | – | –
GGUCCAGCCUGAGCUGGACAAAAGCAUGUACAUGAGGAUCACCCAUGUCAUGUACAGGCUUUUUGCUCGUCUUAAAA [JL mod - D87 - 7] (puzzle: Sensor for hsa-mir-208a) | 622 | 16.1 | 825 | – | – | –
GGAGAGAGAGCACAGGAUAUGAGAGGAGAGACAUGAGGAUCACCCAUGUAAGAGAGAGAGGAGAGUUAGAAGGGUGAGAGAGAGG [Altered State 2-20 - Jieux - Same State 2] (puzzle: Same State 2) | 54.7 | 43 | 102 | – | – | –
AGAAAGAAACAUGAGGAUCACCCAUGUACAAGCUUUUUGCUCGUCUUAUUACAUGGGUUCAUGGGUGAUCGGGAUGU [Tim MacKenzie] (puzzle: Sensor for hsa-mir-208a version 2) | 11.1 | 13.1 | 19.9 | – | – | –
GCAGGACGGUAAAACAUCUCACAUGAGGAUCACCCAUGUCGUGAGGAUAUGGAUCCUAAUUGGAUCCAGAAGGCACGGUCCUGC [Fiskers NG3ss - 29] (Eterna round: R96, puzzle: Same State NG 3) | – | – | – | 18.4 | 14 | 13.6
UUGAAGAAUUAAGGAUAUUGAGUACAUAUGUUUAACAUGAGGAUCACCCAUGUGGGUUGCGGUAUCGAGAAGGUAAAUUACUAG [JL SSNG2 1.45] (Eterna round: R96, puzzle: Same State NG 2) | – | – | – | 91.2 | 76.1 | 155
GUACAAAUCAUAGGAUAUGGGCGGGAAUGCCGUCCAGAAGGAUGAACAUGAGGAUCACCCAUGUCCGGCCACAAAUACGCGGCC [Bientela] (Eterna round: R96, puzzle: Same State NG 1) | – | – | – | 72.3 | 104 | 161
GGAAAGAGGUAAGGAUAUGCAUGGCGGAGACAUGAGGAUCACCCAUGUUGGAGACGAAAUCUAGGGUAGAAGGUACAAGGAAGG [AK SSNG2-V2-11] (Eterna round: R96, puzzle: Same State NG 2) | – | – | – | 133 | 44.6 | 128
AAACAUGAGGAUCACCCAUGUCGAUCAGAACUCUGAUCUGCUCAGGAUAUCCGAAUGCGCGUUUCGGAGAAGGGAGAAAUGUGA [Lareraedqu] (Eterna round: R96, puzzle: Same State NG 3) | – | – | – | 69.8 | 36.4 | 53.2
